Assay results reported in the supplement of paper PMC10724198.
± gives the standard deviation of the averaged measurements.

Tested on: Saccharomyces cerevisiae
Test: protein stability index of tFT-peptide fusion (C-terminal peptide) (PSI (0-1 scale)); higher = more stable (slower turnover)
Settings: genetic background: wild type; temperature: 30 C
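Note: PSI is a weighted mean of sequencing reads over stability bins, variants kept only with over 10 reads, mCherry proximal and sfGFP distal, peptide attached via GGGS linker.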

IREQQKNQNHKE
protein stability index: 0.642 ± 0.051

VPSRRLPLPPAS
protein stability index: 0.695 ± 0.0086

PPPPPPPLPPFT
protein stability index: 0.681 ± 0.015

YRLLRINFALPI
protein stability index: 0.622 ± 0.025

TKPTRPVSPTHL
protein stability index: 0.693 ± 0.12

IKMRKICLIGSM
protein stability index: 0.603 ± 0.052

SPRKTAVIGGTT
protein stability index: 0.688 ± 0.034

LWGSGRNWLLWR
protein stability index: 0.7 ± 0.017

PMADACPAPPPQ
protein stability index: 0.643 ± 0.041

RSTPRPSSRDSL
protein stability index: 0.7789 ± 0.006

LDPPHTLPRSAP
protein stability index: 0.70982 ± 0.0002

AGRVGGFFFVVA
protein stability index: 0.608 ± 0.017

KKKLKRTIKKIA
protein stability index: 0.481 ± 0.034

LEYRSCDFIDRS
protein stability index: 0.625 ± 0.057

SSFGSALRPRGV
protein stability index: 0.677 ± 0.029

PNPIHHPTSTTA
protein stability index: 0.672 ± 0.053

CIVDFLGISSGI
protein stability index: 0.659 ± 0.057

LYPDTDSLTPLP
protein stability index: 0.725 ± 0.05

GGKTRGVRMCGG
protein stability index: 0.648 ± 0.014

VYGVLLGWGCVV
protein stability index: 0.577 ± 0.015

GPRGGRLSWAPG
protein stability index: 0.62172 ± 0.00044

PFSGPVYSHNDV
protein stability index: 0.738 ± 0.08

EGREGQRHRRVI
protein stability index: 0.669 ± 0.01

PSLSPVEVPLSR
protein stability index: 0.759 ± 0.046

IQHWGIRRRITY
protein stability index: 0.728 ± 0.066

RPLPPPPPPRSP
protein stability index: 0.741 ± 0.21

TPPACTRIPPAN
protein stability index: 0.777 ± 0.12

SIQVFDTYIITD
protein stability index: 0.697 ± 0.068

KVRSFGGLFVKG
protein stability index: 0.68 ± 0.022

EGGVGGRAPRVR
protein stability index: 0.747 ± 0.098

GIPEFGYLYLVT
protein stability index: 0.613 ± 0.017

VVAPETTPFSPR
protein stability index: 0.7193 ± 0.007

CGVVSSSVDCIN
protein stability index: 0.699 ± 0.028

FSFVTFYSICDV
protein stability index: 0.528 ± 0.012

GCVVLGFDSVAV
protein stability index: 0.842 ± 0.2

LVCSSVALLSVL
protein stability index: 0.593 ± 0.018

HARAGTKPLTGY
protein stability index: 0.678 ± 0.0092

YQPLWTNTITGT
protein stability index: 0.799 ± 0.17

KKKKKKRNKQKN
protein stability index: 0.752 ± 0.043

FSCPALCSCLAV
protein stability index: 0.604 ± 0.087

WVLFWWRGRSGR
protein stability index: 0.665 ± 0.042

WAPFGKMVGGPW
protein stability index: 0.785 ± 0.027

VFDIQLLDGGGP
protein stability index: 0.685 ± 0.025

LRPGRSKHSSQA
protein stability index: 0.721 ± 0.044

DGAVCSAFASIF
protein stability index: 0.701 ± 0.0089

PPPAPFSPLPPP
protein stability index: 0.7184 ± 0.002

PEAEPPPPPPPP
protein stability index: 0.552 ± 0.028

SHRRLPPSRFYR
protein stability index: 0.7 ± 0.081

LLHRALLFPAVM
protein stability index: 0.734 ± 0.017

TVPNLTPALPPL
protein stability index: 0.525 ± 0.11

PCAPPTPAPLHP
protein stability index: 0.6687 ± 0.0048

PSPPPPPRSFLH
protein stability index: 0.649 ± 0.066

PPAPSSLTASPF
protein stability index: 0.71 ± 0.08

WDGGGGGFGLVV
protein stability index: 0.755 ± 0.06

LSAMVSYTRAPF
protein stability index: 0.67811 ± 0.00065

NPLSSPSLPPSS
protein stability index: 0.625 ± 0.057

RLVLRGRWGIGR
protein stability index: 0.618 ± 0.0014

VCPRLISPLILL
protein stability index: 0.584 ± 0.027

QKNETNQWKGKK
protein stability index: 0.672 ± 0.032

FPVWVKGLLGMG
protein stability index: 0.636 ± 0.048

GLGGGVGGWLVV
protein stability index: 0.705 ± 0.041

QGCSRHIRTGKK
protein stability index: 0.5741 ± 0.0037

TCPPAPSTGPST
protein stability index: 0.648 ± 0.0073

PTYRGAPCLPPF
protein stability index: 0.728 ± 0.013

RLRRSSSNPHSP
protein stability index: 0.656 ± 0.043

CNQRRWRGRKGY
protein stability index: 0.67 ± 0.01

SPRFSPPAILHN
protein stability index: 0.71 ± 0.0091

FPPLIPLPINHP
protein stability index: 0.631 ± 0.1

DGKNQGKAEGTK
protein stability index: 0.693 ± 0.041

IAQDLEPACIKG
protein stability index: 0.695 ± 0.021

IEEQQKEKNRPK
protein stability index: 0.712 ± 0.027

LPPPPLSPPSLV
protein stability index: 0.734 ± 0.0078

ERKRPLAKKTKN
protein stability index: 0.643 ± 0.055

PFPSFFFCCISL
protein stability index: 0.507 ± 0.0075

EQWSAHSMLSGR
protein stability index: 0.705 ± 0.026

KPLPPPEFRPHP
protein stability index: 0.69 ± 0.02

PINALLHNKRES
protein stability index: 0.721 ± 0.082

PERAPASRWTLS
protein stability index: 0.7362 ± 0.0049

PPYPPPRPKPPR
protein stability index: 0.699 ± 0.012

PLPINAGVRITP
protein stability index: 0.671 ± 0.1

PRPRRSSLPFPP
protein stability index: 0.818 ± 0.073

TIMRGEPGQSHF
protein stability index: 0.741 ± 0.089

HRYRAFPLASSR
protein stability index: 0.618 ± 0.056

GQCRTELVGLWE
protein stability index: 0.664 ± 0.13

PLLTPPFFPPPP
protein stability index: 0.7588 ± 0.0053

GSWRSFHVWYNS
protein stability index: 0.571 ± 0.042

KNRHWNKKIRKC
protein stability index: 0.6533 ± 0.0065

RNIMKQQNTSIR
protein stability index: 0.717 ± 0.078

APLRAPYPPPPY
protein stability index: 0.7153 ± 0.0014

PPLMLPSTPSSS
protein stability index: 0.704 ± 0.095

ISFVFSDSLFPI
protein stability index: 0.785 ± 0.012

SLTTPGMSQAYY
protein stability index: 0.703 ± 0.034

DSIVWVGVTYFL
protein stability index: 0.553 ± 0.012

PRGPPPPAPPPT
protein stability index: 0.689 ± 0.0075

PPYDSSYGILLR
protein stability index: 0.7666 ± 0.0053

FAFSDFHLVVFF
protein stability index: 0.684 ± 0.011

SFLHLLCSFVLL
protein stability index: 0.51 ± 0.039

GSGTTGSLSYGV
protein stability index: 0.695 ± 0.02

KNNVVKIEEEKK
protein stability index: 0.751 ± 0.013

DEEVGWGRGGGW
protein stability index: 0.673 ± 0.011

GSVSGCVGVMRG
protein stability index: 0.641 ± 0.01
